Test results published in patent publication US11464853B2, “Amino acid and peptide conjugates and conjugation process” (Auckland UniServices Limited, priority 2016, dated 2022).
“Also recorded” adds a separate entry of the source. Where no end group is shown, it is not given here. [ ]: non-standard residue; d: D form.

What was measured:
Type in all cases: cell-based
[1] = target: T1, human TLR2 (HEK-Blue™-hTLR2 cells) (Homo sapiens, UniProt O60603); experiment: TLR2 agonism in HEK-Blue-hTLR2 cells (SEAP reporter); conditions: for SEAP production / TLR2 agonism in HEK-Blue™-hTLR2: Example 2, FIG. 4A-4C, 10-12 h incubation, absorbance 635 nm
T1 construct: host or cells: HEK-Blue-hTLR2 (HEK cells co-transfected with human TLR2 and the SEAP reporter)
Procedure: (§1) HEK-Blue™ Detection medium, HEK-Blue™-hTLR2 and HEK-Blue™-mTLR2 were purchased from Invivogen. These HEK-Blue cells were produced by co-transfection of both reporter gene SEAP (secreted embryonic alkaline phosphatase) and either human or murine TLR2, respectively. The SEAP reporter gene is under the control of the IFN-B minimal promoter fused to five AP-1 and five NFkB binding sites. Cells were cultured according to manufacturer's instructions.
(§2) On the day of the assay, TLR agonists 510, 520, 530, 540, 550 or PBS (negative control) were added at the indicated concentrations in 20 μl volume of endotoxin free water in a 96-well plate. HEK-Blue™-hTLR2 or […] were resuspended at ˜2.78×10^5 cells/ml in HEK-Blue™ Detection medium and 180 μl of the cell suspension added to each well (˜5×10^4 cells). Cells were incubated for 10-12 h at 37° C. in 5% CO2. SEAP expression was quantified using an EnSpire plate reader (PerkinElmer) at […]. Data presented as mean+/−SD ABS or mABS (635 nm) values for triplicate wells following background subtraction.
(§3) The TLR2 agonism of the agonists in Table 4 were investigated in HEK-Blue™-mTLR2 (FIG. 6A) and HEK-Blue™-hTLR2 (FIG. 6B) cells by following a procedure analogous to that described in section 2.1 of Example 2 across a 6-log10 dilution series (10^−6 M to 10^−11 M). (R/S)-Pam-1-Cys-NH2 was tested only at 10^−6 and 10^−9 M. Data presented as mean+/−SD absorbance (635 nm) values for triplicate wells following background subtraction, with dotted lines representing absorbance in wells treated with media only.

[2] = target: T2, murine TLR2 (HEK-Blue™-mTLR2 cells) (Mus musculus, UniProt Q9QUN7); experiment: TLR2 agonism in HEK-Blue-mTLR2 cells (SEAP reporter); conditions: for SEAP production / TLR2 agonism in HEK-Blue™-mTLR2: Example 2, FIG. 4A-4C, 10-12 h incubation, absorbance 635 nm; for SEAP production / TLR2 agonism in HEK-Blue™-mTLR2 / TLR2 agonism for mTLR2: result in words; for TLR2 agonism for mTLR2: Example 8, FIG. 6A, dilution series 10^−6 M to 10^−11 M
T2 construct: host or cells: HEK-Blue-mTLR2 (HEK cells co-transfected with murine TLR2 and the SEAP reporter)
Procedure: as §1, §2, §3

[3] = system: CD8+ T cell clones with TLR2+ HLA-A2+ lymphoblastoid B-cell lines (LCL) as antigen-presenting cells; experiment: Peptide processing and presentation to CD8+ T-cell clones by LCL (CD137 expression, flow cytometry); conditions: result in words
Procedure: Epstein-Barr Virus-transformed TLR2+ HLA-A2+ lymphoblastoid B-cell lines (LCL) were used as antigen-presenting cells in all peptide processing and presentation assays. LCL were incubated for 16 h in RF10+peptide/construct as indicated at desired concentrations. Untreated LCL were incubated in RF10 only. LCL/construct incubation was performed in 96 well plates (U-bottom, BD Biosciences) or in 48wp (flat bottom, BD Biosciences) depending of the nature of the assay and the numbers of LCL required per treatment. Following incubation, LCL were thoroughly washed with RPMI 1640 to remove unbound construct/peptide.
To enable flow cytometric detection, CD8+ T cell clones were pre-stained with 0.5 μM CellTrace™ Violet (“CTV”) (Life Technologies™) following manufacturer's protocols prior to seeding into APC wells. Loaded, washed LCL and CTV-stained T cell clones were seeded in 96 well plate wells (U-bottom) at a ratio of 4:1 (LCL: T cell) in duplicate (typical numbers of cells used were 1.25×10^4 cells/ml T cells and 5×10^4 cells/ml APC). Following seeding, plates were gently centrifuged (≤300×g, 3 minutes) to allow immediate interaction, and incubated for 26 hours in a standard cell culture incubator.
To detect T cell activation, samples were stained with anti-CD8:AlexaFluor700 and anti-CD137:PE antibodies (both Biolegend). […]

T1 sequence (O60603 21-784): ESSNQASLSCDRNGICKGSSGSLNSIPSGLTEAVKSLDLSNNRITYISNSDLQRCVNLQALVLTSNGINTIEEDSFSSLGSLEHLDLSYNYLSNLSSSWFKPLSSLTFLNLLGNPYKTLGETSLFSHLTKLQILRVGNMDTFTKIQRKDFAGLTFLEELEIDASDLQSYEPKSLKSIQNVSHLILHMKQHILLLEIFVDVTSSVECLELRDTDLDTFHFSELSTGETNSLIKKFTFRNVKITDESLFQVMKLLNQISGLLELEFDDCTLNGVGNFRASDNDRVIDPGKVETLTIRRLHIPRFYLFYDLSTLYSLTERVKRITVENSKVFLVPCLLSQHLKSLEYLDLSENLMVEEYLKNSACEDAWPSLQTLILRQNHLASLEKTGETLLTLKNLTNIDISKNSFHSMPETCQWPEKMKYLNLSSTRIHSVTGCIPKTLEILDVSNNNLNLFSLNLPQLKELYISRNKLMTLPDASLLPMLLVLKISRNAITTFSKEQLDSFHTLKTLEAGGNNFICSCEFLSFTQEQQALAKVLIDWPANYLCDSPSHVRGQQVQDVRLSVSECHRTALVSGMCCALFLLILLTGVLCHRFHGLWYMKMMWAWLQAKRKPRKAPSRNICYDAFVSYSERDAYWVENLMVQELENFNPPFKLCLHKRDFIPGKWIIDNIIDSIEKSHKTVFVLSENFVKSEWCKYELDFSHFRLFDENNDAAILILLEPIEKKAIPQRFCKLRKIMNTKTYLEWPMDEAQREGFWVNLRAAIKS
T2 sequence (Q9QUN7 25-784): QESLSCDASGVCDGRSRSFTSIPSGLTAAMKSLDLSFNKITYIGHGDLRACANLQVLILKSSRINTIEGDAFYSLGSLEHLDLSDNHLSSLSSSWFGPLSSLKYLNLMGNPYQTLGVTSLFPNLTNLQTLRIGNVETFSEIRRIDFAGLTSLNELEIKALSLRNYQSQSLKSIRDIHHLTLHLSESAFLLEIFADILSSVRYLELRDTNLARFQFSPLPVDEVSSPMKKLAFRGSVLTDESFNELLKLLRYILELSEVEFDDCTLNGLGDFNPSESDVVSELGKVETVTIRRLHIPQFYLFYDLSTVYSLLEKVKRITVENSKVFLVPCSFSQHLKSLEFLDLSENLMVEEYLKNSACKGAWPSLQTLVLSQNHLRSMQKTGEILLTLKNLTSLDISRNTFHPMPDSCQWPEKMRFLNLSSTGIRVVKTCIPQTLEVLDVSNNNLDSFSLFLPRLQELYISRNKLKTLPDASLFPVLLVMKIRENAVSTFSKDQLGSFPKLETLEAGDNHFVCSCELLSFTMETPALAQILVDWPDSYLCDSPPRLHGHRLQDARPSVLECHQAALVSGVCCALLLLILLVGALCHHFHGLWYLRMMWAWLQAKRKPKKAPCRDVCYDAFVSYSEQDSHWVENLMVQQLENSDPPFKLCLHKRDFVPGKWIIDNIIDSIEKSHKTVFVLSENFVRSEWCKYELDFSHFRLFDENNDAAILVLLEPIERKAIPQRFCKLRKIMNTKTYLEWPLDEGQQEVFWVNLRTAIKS

Row | Substance | SEAP production / TLR2 agonism in HEK-Blue™-hTLR2 ([1]; result in words) | SEAP production / TLR2 agonism in HEK-Blue™-mTLR2 [2] | further results
1 | homoPam2Cys(NH2)-SKKKK: Lipopeptide TLR2 agonist of the invention: Homo-Pam2Cys(NH2) lipid component with SKKKK linker, no epitope peptide ([homoPam2Cys(NH2)]SKKKK) | comparable production in HEK-Blue™-hTLR2; also recorded: demonstrably more potent TLR2 agonists than Pam1CYs-SKKKK; also recorded: active in both HEK-Blue™-mTLR2 and -hTLR2 to sub-nM concentrations | equivalent SEAP production to Pam3Cys-SKKKK; also recorded: demonstrably more potent TLR2 agonists than Pam1CYs-SKKKK; also recorded: active in both HEK-Blue™-mTLR2 and -hTLR2 to sub-nM concentrations | –
2 | Pam1Cys-SKKKK-NH2: TLR agonist of Table 4 ([Pam1Cys]SKKKK-NH2) [reference compound] | – | – | TLR2 agonism for hTLR2 ([1]; Example 8, FIG. 6B, dilution series 10^−6 M to 10^−11 M, result in words): agonism for hTLR2 at 10^−6 M but not 10^−9 M; TLR2 agonism for mTLR2 [2]: no agonism at any concentration for mTLR2
3 | Pam1Cys-SKKKK: known TLR2 agonist, prepared in-house; lipid/linker component Pam1Cys-SKKKK without peptide ([Pam1Cys]SKKKK) [reference compound] | – | not active in HEK-Blue™-mTLR2 at sub-μM concentrations | –
4 | 521: Pam2Cys-SKKKK conjugated to peptide NLVPMVATVK(Ac) (Pam2Cys-SKKKKNLVPMVATVK(Ac)) [compound 521, reference compound] | relative loss of agonism when compared to unconjugated Pam3Cys-SKKKK | relative loss of agonism when compared to unconjugated Pam3Cys-SKKKK | –
5 | (R)-Pam2Cys-SKKKK-NH2: enantiopure epimeric TLR agonist of Table 4 ([(R)‑Pam2Cys]SKKKK-NH2; also: (R) epimer, enantiopure) [reference compound] | – | – | TLR2 agonism for mTLR2 [2]: increase in NKκB production at 10^−10 and 10^−11 M only
6 | 552: Homo-Pam2Cys(NHAc)-SKKKK conjugated to peptide VPGVLLKEFTVSGNILTIRLTAADHR (homo-Pam2Cys(NHAc)-SKKKK conjugate) [compound 552] | – | – | T-cell clone activation (live clonal cells positive for CD137) ([3]; VPG-bearing constructs and VPG long peptide, FIG. 4E, epitope EFTVSGNIL): superior T-cell clone activation to VPG-bearing-Pam1Cys-SKKKK (512); also recorded: superior to VPG peptide alone (500)
7 | 551: Homo-Pam2Cys(NHAc)-SKKKK conjugated to peptide NLVPMVATVK(Ac) ({homoPam2Cys(NHAc)}-SKKKKNLVPMVATVK(Ac); also: conjugated to lipopeptide, linkage not given here) [compound 551] | did not result in any loss of agonism, and homoPam2Cys(NHAc)-SKKKK-NLVPMVATVK(Ac) remained a more potent agonist than Pam3Cys-SKKKK, particularly at nM concentrations | did not result in any loss of agonism, and homoPam2Cys(NHAc)-SKKKK-NLVPMVATVK(Ac) remained a more potent agonist than Pam3Cys-SKKKK, particularly at nM concentrations | T-cell clone activation (live clonal cells positive for CD137) ([3]; NLV-bearing constructs, FIG. 4D, LCL loaded 16 h, co-culture 26 h): comparable T-cell clone activation to NLV-bearing-Pam2Cys-SKKKK (521), and superior T-cell clone activation to NLV-bearing-Pam1Cys-SKKKK (511)
8 | Pam2Cys-SKKKK: known TLR2 agonist, prepared in-house; lipid/linker component Pam2Cys-SKKKK without peptide ([Pam2Cys]SKKKK) [reference compound] | most potent agonist tested | most potent agonist tested | –
9 | (R)-Pam3Cys: enantiopure epimeric TLR agonist of Table 4 (CSKKKK) [reference compound] | – | – | NFκB production maintained at lower concentration than paired (S)-version ([1]; hTLR2, (R)- vs (S)-epimer): ≥ 10 fold; NFκB production maintained at lower concentration than paired (S)-version ([2]; mTLR2, (R)- vs (S)-epimer): ≥ 10 fold
10 | homoPam2Cys(NHAc)-SKKKK: Lipopeptide TLR2 agonist of the invention: Homo-Pam2Cys(NHAc) lipid component with SKKKK linker, no epitope peptide ([homoPam2Cys(NHAc)]SKKKK) | equivalent SEAP production to the most potent agonist tested (Pam2Cys-SKKKK) at ≥1 nM and comparable production at sub-nM concentrations; also recorded: demonstrably more potent agonist than Pam3Cys-SKKKK or homoPam2Cys(NH2)-SKKKK; also recorded: demonstrably more potent TLR2 agonists than Pam1CYs-SKKKK; also recorded: active in both HEK-Blue™-mTLR2 and -hTLR2 to sub-nM concentrations | equivalent SEAP production to the most potent agonist tested (Pam2Cys-SKKKK) at ≥1 nM and comparable production at sub-nM concentrations; also recorded: demonstrably more potent agonist than Pam3Cys-SKKKK or homoPam2Cys(NH2)-SKKKK; also recorded: demonstrably more potent TLR2 agonists than Pam1CYs-SKKKK; also recorded: active in both HEK-Blue™-mTLR2 and -hTLR2 to sub-nM concentrations | –
